Data taken from PMC6537880 (Analytical chemistry, 2016).

Molecular target: the molecule itself
Test: native MS

B1: AAV8 capsid viral protein VP3 (natural protein)
chain: MAAGGGAPMADNNEGADGVGSSSGNWHCDSTWLGDRVITTSTRTWALPTYNNHLYKQISNGTSGGATNDNTYFGYSTPWGYFDFNRFHCHFSPRDWQRLINNNWGFRPKRLSFKLFNIQVKEVTQNEGTKTIANNLTSTIQVFTDSEYQLPYVLGSAHQGCLPPFPADVFMIPQYGYLTLNNGSQAVGRSSFYCLEYFPSQMLRTGNNFQFTYTFEDVPFHSSYAHSQSLDRLMNPLIDQYLYYLSRTQTTGGTANTQTLGFSQGGPNTMANQAKNWLPGPCYRQQRVSTTTGQNNNSNFAWTAGTKYHLNGRNSLANPGIAMATHKDDEERFFPSNGILIFGKQNAARDNADYSDVMLTSEEEIKTTNPVATEEYGIVADNLQQQNTAPQIGTVNSQGALPGMVWQNRDVYLQGPIWAKIPHTDGNFHPSPLMGGFGLKHPPPQILIKNTPVPADPPTTFNQSKLNSFITQYSTGQVSVEIEWELQKENSKRWNPEIQYTSNYYKSTSVDFAVNTEGVYSEPRPIGTRYLTRNL
binding result: binds
